System: small intestinal immune cells
Assay: Droplet-based scRNA-seq of small intestinal immune cells (LP and PP), OVA vs PBS, clustering and differential expression
Type: in vivo, mouse
Settings: PP; cluster ID 8
Source text: To comprehensively characterize small intestinal immune cells, Applicants generated scRNA-Seq profiles for 58,067 immune cells collected from lamina propria (LP) and Peyer's patch (PP) regions at steady state and after induction of a type 2 inflammatory reaction to ovalbumin (OVA) (Brandt et al., 2003) (FIGS. 1A and 8A). To ensure sufficient representation of rare cells, Applicants combined a normalization strategy—removing by flow sorting either a portion of IgD+ naïve B cells, which are the most abundant cell type in PPs, or all CD19+ and CD3+ T cells (FIG. 8B, Methods)—with profiling of a sufficiently large number of cells number (P>0.99 to recover at least 15 cells from each cluster, Methods) by massively parallel scRNA-seq (Haber et al., 2017) (Methods). Applicants obtained 36,797 and 21,270 high quality cells passing initial filtering (Methods) from PP and LP regions, respectively.
Overall, Applicants annotated 27 cell subsets across the two compartments, spanning T cells, B cells, ILCs, dendritic cells (DCs), myeloid cells and stromal cells, in frequencies ranging from 0.07% to 14%. Briefly, Applicants first partitioned the cells from the PP regions by unsupervised clustering (Methods) into 46 clusters, retained the 97% of cells that were robustly assigned cell identities in each cluster (Methods), assigned the cells from the LP regions to the 46 clusters using a classifier (Methods), and visualized the data with scvis (Ding et al., 2018), a deep generative model-based method (FIGS. 1B and 8C, Methods). Next, Applicants identified genes that were differentially expressed between the cells in each cluster and the remaining cells (Table 1, Methods), as well as between pairs of clusters (Table 2), to elucidate identities of similar cell types/states. Applicants excluded from downstream analysis clusters mostly consisting of contaminants from epithelium, likely doublets, or cells with a small number of Unique Molecular Identifiers (UMIs) (FIGS. 1C and 8D), or lacking distinct markers (Methods). Altogether, Applicants retained 27 clusters spanning 85% of the cells and each associated with distinct marker genes (FIG. 8E, Methods).
To induce allergic reaction to OVA, 6 to 7 weeks old mice were sensitized twice, two weeks apart, with 50 μg of OVA plus 1 mg of aluminum potassium sulfate adjuvant via intraperitoneal injection. Two weeks later, mice were orally administered with 50 mg of OVA on every other day for a total of five times. 1 μg of α-CGRP peptide was administered simultaneously when indicated. Mice were deprived of food for 3-4 hours in cages with wood chip bedding for limiting antigen degradation in the stomach before each intragastric challenge.
Isolation of cells from Peyer's patches (PPs). Peyer's patches (PPs) were carefully dissected from the small intestine under a stereo microscope using a fine scissor, pierced once with a fine forcep. Tissues were digested in freshly made digestion buffer (RPMI-1640 containing 100 μg/ml Liberase™ and 50 μg/ml DNase I at 37° C. on a roto-mixer. After 15 min, tissues were very gently mixed using a 1 ml pipette. The supernatant was collected and added to ice-cold MACS buffer (pH 7.4; PBS plus 2% FCS and 2 mM EDTA). Pre-warmed (37° C.) fresh digestion buffer was added to the remaining tissues. After rotation at 37° C. for 15 min, the mixture was vigorously mixed using a 1 ml pipette for 1 min. Supernatants from the two steps were combined and passed through 70 μm filters and stained for FACS (below).
Isolation of cells from the lamina propria (LP). The small intestines were opened longitudinally and washed in ice-cold PBS. For scRNA-seq, roughly 0.5 cm of fragments from each of the distal, middle and proximal regions without visible PPs were collected. Epithelial cells were dissociated by tissue rotation in pre-warmed (37° C.) PBS containing 10 mM EDTA at 37° C. for 15 min, followed by additional incubation on ice for 15 min. Tissues were then shaken vigorously. […]

B1: OVA (protein, UniProt P01012 2-386, looked up)
Ovalbumin: GSIGAASMEFCFDVFKELKVHHANENIFYCPIAIMSALAMVYLGAKDSTRTQINKVVRFDKLPGFGDSIEAQCGTSVNVHSSLRDILNQITKPNDVYSFSLASRLYAEERYPILPEYLQCVKELYRGGLEPINFQTAADQARELINSWVESQTNGIIRNVLQPSSVDSQTAMVLVNAIVFKGLWEKAFKDEDTQAMPFRVTEQESKPVQMMYQIGLFRVASMASEKMKILELPFASGTMSMLVLLPDEVSGLEQLESIINFEKLTEWTSSNVMEERKIKVYLPRMKMEEKYNLTSVLMAMGITDVFSSSANLSGISSAESLKISQAVHAAHAEINEAGREVVGSAEAGVDAASVSEEFRADHPFLFCIKHIATNAVLFFGRCVSP
  Fosl2 percentage of expressing cells in OVA-treated group: 0.378
  Ftl1 percentage of expressing cells in OVA-treated group: 0.963
  Gadd45b percentage of expressing cells in OVA-treated group: 0.17
  Gimap1 percentage of expressing cells in OVA-treated group: 0.776
  Gimap6 percentage of expressing cells in OVA-treated group: 0.815
  Gimap9 percentage of expressing cells in OVA-treated group: 0.511
  Gnai2 percentage of expressing cells in OVA-treated group: 0.661
  Gramd1a percentage of expressing cells in OVA-treated group: 0.336
  Gramd3 percentage of expressing cells in OVA-treated group: 0.227
  Gzma percentage of expressing cells in OVA-treated group: 0.764
  H2-K1 percentage of expressing cells in OVA-treated group: 0.978
  H3f3b percentage of expressing cells in OVA-treated group: 0.993
  Hcst percentage of expressing cells in OVA-treated group: 0.898
  Hist1h1c percentage of expressing cells in OVA-treated group: 0.348
  Hist1h1e percentage of expressing cells in OVA-treated group: 0.176
  Icam1 percentage of expressing cells in OVA-treated group: 0.175
  Id2 percentage of expressing cells in OVA-treated group: 0.684
  Ier2 percentage of expressing cells in OVA-treated group: 0.781
  Ier5l percentage of expressing cells in OVA-treated group: 0.057
  Ifi203 percentage of expressing cells in OVA-treated group: 0.547
  Ifrd1 percentage of expressing cells in OVA-treated group: 0.276
  Igha percentage of expressing cells in OVA-treated group: 0.488
  Igkc percentage of expressing cells in OVA-treated group: 0.677
  Ikzf2 percentage of expressing cells in OVA-treated group: 0.216
  Il2rg percentage of expressing cells in OVA-treated group: 0.681
  Il16 percentage of expressing cells in OVA-treated group: 0.336
  Jun percentage of expressing cells in OVA-treated group: 0.453
  Jund percentage of expressing cells in OVA-treated group: 0.846
  Kdm2b percentage of expressing cells in OVA-treated group: 0.158
  Kdm6b percentage of expressing cells in OVA-treated group: 0.274
  Klf4 percentage of expressing cells in OVA-treated group: 0.122
  Klf6 percentage of expressing cells in OVA-treated group: 0.589
  Klrb1c percentage of expressing cells in OVA-treated group: 0.735
  Klrb1f percentage of expressing cells in OVA-treated group: 0.56
  Klrc1 percentage of expressing cells in OVA-treated group: 0.608
  Klrc2 percentage of expressing cells in OVA-treated group: 0.505
  Klrd1 percentage of expressing cells in OVA-treated group: 0.939
  Klre1 percentage of expressing cells in OVA-treated group: 0.744
  Klrk1 percentage of expressing cells in OVA-treated group: 0.873
  Lax1 percentage of expressing cells in OVA-treated group: 0.286
  Litaf percentage of expressing cells in OVA-treated group: 0.339
  Lmna percentage of expressing cells in OVA-treated group: 0.089
  Maff percentage of expressing cells in OVA-treated group: 0.251
  Mcpt1 percentage of expressing cells in OVA-treated group: 0.209
  Mir142hg percentage of expressing cells in OVA-treated group: 0.161
  Ms4a4b percentage of expressing cells in OVA-treated group: 0.953
  Ms4a6b percentage of expressing cells in OVA-treated group: 0.419
  Myl6 percentage of expressing cells in OVA-treated group: 0.987
  Nabp1 percentage of expressing cells in OVA-treated group: 0.702
  Ncr1 percentage of expressing cells in OVA-treated group: 0.964
  Ndel1 percentage of expressing cells in OVA-treated group: 0.216
  Neat1 percentage of expressing cells in OVA-treated group: 0.503
  Neurl3 percentage of expressing cells in OVA-treated group: 0.388
  Nfil3 percentage of expressing cells in OVA-treated group: 0.365
  Nfkb1 percentage of expressing cells in OVA-treated group: 0.374
  Nfkbia percentage of expressing cells in OVA-treated group: 0.614
  Nfkbid percentage of expressing cells in OVA-treated group: 0.146
  Nfkbie percentage of expressing cells in OVA-treated group: 0.111
  Nfkbiz percentage of expressing cells in OVA-treated group: 0.358
  Ninj1 percentage of expressing cells in OVA-treated group: 0.125
  Nkg7 percentage of expressing cells in OVA-treated group: 0.985
  Nr4a1 percentage of expressing cells in OVA-treated group: 0.561
  Nr4a2 percentage of expressing cells in OVA-treated group: 0.348
  Nr4a3 percentage of expressing cells in OVA-treated group: 0.157
  Odc1 percentage of expressing cells in OVA-treated group: 0.202
  P2ry10 percentage of expressing cells in OVA-treated group: 0.374
  Phlda1 percentage of expressing cells in OVA-treated group: 0.134
  Pim1 percentage of expressing cells in OVA-treated group: 0.677
  Pnrc1 percentage of expressing cells in OVA-treated group: 0.769
  Ppp1r15a percentage of expressing cells in OVA-treated group: 0.406
  Ppp1r16b percentage of expressing cells in OVA-treated group: 0.206
  Ppp3cc percentage of expressing cells in OVA-treated group: 0.268
  Prr7 percentage of expressing cells in OVA-treated group: 0.093
  Ptp4a2 percentage of expressing cells in OVA-treated group: 0.606
  Ptprcap percentage of expressing cells in OVA-treated group: 0.929
